The source of these data is patent US6713276B2, “Modulation of Aβ levels by β-secretase BACE2” (Scios, Inc., priority 2000, dated 2004).

What all share (assay type): cell-based, human
In data set [1] the test system is APP751sw processing in SK-N-MC cells. Kind of data set: co-transfection with APP751sw in SK-N-MC neuroblastoma cells, ELISA of conditioned medium. The settings on record: co-transfected with APP751sw. As to the method: (§1) Expression vectors containing BACE and BACE2 cDNAs were transfected into HEK293T cells in the presence of APP751sw or CT100 (Shoji et al., Science 258: 126-129 [1992]; Lichtenthaler et al., Proc. Natl. Acad. Sci. USA 96: 3053-3058 [1999]). Transfections were performed in 24 well plates using Lipofectamine Plus (Gibco/BRL, Bethesda, Md.) and DNA concentrations were kept constant by including non-specific DNA. Expression plasmids were tested for BACE and BACE2 expression by Western blotting. Cell culture supernatants were collected 48 hours and 72 hours post-transfection, and assayed for α-NTF, β-NTF and Aβ formation. β-NTF measurement was performed as described below. α-NTF was captured like β-NTF but was detected with biotinylated 2H3 (Johnson-Wood et al., Proc. Nati. Acad. Sci. USA 94: 1550-1555 [1997]). Aβ levels were determined by an ELISA using monoclonal antibodies 266 for capture and biotinylated 3D6 for detection (see Johnson-Wood et al., [1997] ibid for antibody epitope description). Aβ42, in contrast, was captured using 21F 12 and detected with biotinylated 3D6. […]
We further assessed the modulatory effect of BACE2 on Aβ formation using a human neuroblastoma cell line, SK-N-MC.

Data set [2] concerns CT100 (C-terminal 100 amino acids of APP) processing in HEK293T cells. Kind of data set: co-transfection with CT100 in HEK293T cells, ELISA, Western blot, pulse-chase. The note with it: for CTFs derived from CT100 (α-like CTF): HEK293 cells, CT100, Western blot and pulse-chase 90 minutes. Here is the method: as §1, with “3D6. Cell extracts prepared 72 hour post-transfection were separated by SDS-PAGE (Novex) and probed with CT695 (Zymed) for APP and CTFs as well as with an Aβ specific monoclonal antibody WO2 (kindly provided by K. Beyreuther; Ida et al., J. Biol. Chem. 271: 22908-22914 [1996]).” for “3D6.”
This effect prompted investigation into whether β-secretase cleavage was required for Aβ suppression. The effects of BACE2 on the metabolism of the C-terminal 100 amino acids of APP (CT100), a construct that mimics prior β-secretase cleavage (Shoji et al., Science 258: 126-129 [1992]), was analyzed. […] Cells were readiolabeled with ^35S-methionine/cysteine for 15 minutes after which the medium containing radiolabel was removed and replaced with standard medium. […] Over this 90-minute period, samples were taken and assessed for CTFs by immunoprecipitation. […]

The subject of data set [3] is APP751sw processing in HEK293T cells. Kind of data set: pulse-chase / pulse-labeling and immunoprecipitation of APP CTFs, Aβ and p3 in HEK293T cells. As to the method:
Forty eight hours post-transfection, HEK293T cells were labeled for 15 minutes with 200 μCi Promix L [^35S] in vitro cell labeling mix (Amersham) and chased for up to 90 minutes according to standard procedures. APP CTFs were immunoprecipitated with antibodies 369 (Cai et al., Science 259: 514-516 [1993]). For immunoprecipitations of Aβ and p3 from conditioned medium, HEK293T cells were labeled for 5 hours with 300 μCi Promix L [^35S] in vitro cell labeling mix (Amersham) 48 hours post-transfection. Aβ40 and Aβ42 as well as the corresponding p3 species were immunoprecipitated with monoclonal antibodies 1702.1 and 108.1, respectively (Higaki et al., J. Med. Chem. 42: 3889-3898 [1999]).
To analyze the metabolism of APP as a consequence of BACE or BACE2 overexpression we performed a parallel pulse-chase experiment (FIG. 2e). HEK293T cells transfected as above were pulse-labeled and chased for up to 90 minutes and APP and CTFs were immunoprecipitated. […] An alternative β-secretase related cleavage product (β′-CTF) was also formed consistent with previous reports (Vassar et al., Science [1999] ibid; Higaki et al., Neuron 14: 651-659 [1995]). Consistent with its β-secretase activity, BACE2 overexpression led to a significant initial increase in β-CTF levels compared to mock-transfected cells. […] In general, BACE2 might have increased the overall APP turnover. To determine whether BACE affected γ-secretase activity, we determined whether p3 could be formed. We transfected HEK293 cells as in FIG. 2e and labeled them for 5 hours with Promix L [^35S]. Aβ from conditioned medium was then precipitated with antibodies directed against the C-terminal residues of Aβ40 and Aβ42, respectively, that also recognize p3 (FIG. 2f). […] Taken together, BACE2 expression leads to alternative processing of APP that precludes Aβ formation.

The mark [4] stands for this setting: HEK293 cells, labeled for 5 hours, conditioned medium.

B1: BACE2: human aspartyl protease, close homolog of BACE (SEQ ID NO: 2), expressed from pcDNA3.1(−)/BACE2 in transfected cells (protein)
chain: MGALARALLLPLLAQWLLRAAPELAPAPFTLPLRVAAATNRVVAPTPGPGTPAERHADGLALALEPALASPAGAANFLAMVDNLQGDSGRGYYLEMLIGTPPQKLQILVDTGSSNFAVAGTPHSYIDTYFDTERSSTYRSKGFDVTVKYTQGSWTGFVGEDLVTIPKGFNTSFLVNIATIFESENFFLPGIKWNGILGLAYATLAKPSSSLETFFDSLVTQANIPNVFSMQMCGAGLPVAGSGTNGGSLVLGGIEPSLYKGDIWYTPIKEEWYYQIEILKLEIGGQSLNLDCREYNADKAIVDSGTTLLRLPQKVFDAVVEAVARASLIPEFSDGFWTGSQLACWTNSETPWSYFPKISIYLRDENSSRSFRITILPQLYIQPMMGAGLNYECYRFGISPSTNALVIGATVMEGFYVIFDRAQKRVGFAASPCAEIAGAAVSEISGPFSTEDVASNCVPAQSLSEPILWIVSYALMSVCGAILLVLIVLLLLPFRCQRRPRDPEVVNDESSLVRHRWK
In the case of B1, in data set [1], the “Aβ in conditioned medium” value is recorded as “significant reduction of Aβ” and the “β-NTF in conditioned medium” value was “showed β-secretase activity in vivo”. The “total Aβ and Aβ42 levels in conditioned medium” value in data set [2] (HEK293T, co-transfected with CT100) was “dramatic suppression of total Aβ as well as Aβ42 levels”. Further, in data set [2], the “CTFs derived from CT100 (α-like CTF)” value is recorded as “accumulation of the α-like CTF”. Further, the “APP CTF turnover (β-CTF, β′-CTF, α-CTF)” value in data set [3] (HEK293T, APP751sw, 15 min pulse, chase up to 90 minutes) is “strong accumulation of a cleavage product that based on size and gel migration corresponded to α-CTF”. In addition, in data set [3] (setting [4]), the “formation of Aβ40 and Aβ42 (immunoprecipitation)” value is “interfered with the formation of both Aβ40 and Aβ42”; the p3 formation entry was “p3 levels were not significantly affected”.

B2: BACE2 D110A: single D110A BACE2 mutant of a critical aspartate residue, made by site-directed mutagenesis (protein)
chain: ALEPALASPAGAANFLAMVDNLQGDSGRGYYLEMLIGTPPQKLQILVATGSSNFAVAGTPHSYIDTYFDTERSSTYRSKGFDVTVKYTQGSWTGFVGEDLVTIPKGFNTSFLVNIATIFESENFFLPGIKWNGILGLAYATLAKPSSSLETFFDSLVTQANIPNVFSMQMCGAGLPVAGSGTNGGSLVLGGIEPSLYKGDIWYTPIKEEWYYQIEILKLEIGGQSLNLDCREYNADKAIVDSGTTLLRLPQKVFDAVVEAVARASLIPEFSDGFWTGSQLACWTNSETPWSYFPKISIYLRDENSSRSFRITILPQLYIQPMMGAGLNYECYRFGISPSTNALVIGATVMEGFYVIFDRAQKRVGFAASPCAEIAGAAVSEISGPFSTEDVASNCVPAQSLSEPILWIVSYALMSVCGAILLVLIVLLLLPFRCQRRPRDPEVVNDESSLVRHRWK
As for B2, in data set [2], the “CTFs derived from CT100 (α-like CTF)” value was “unable to convert APP CT100 to an α-CTF-like fragment”.
